In the Human Domainome abundance scans (Beltran et al. 2025):
± gives the uncertainty stated by the source.

B1: CD2-associated protein, residues 1 to 59; numbered along this chain, Q9Y5K6 (parent)
chain: MVDYIVEYDYDAVHDDELTIRVGEIIRNVKKLQEEGWLEGELNGRRGMFPDNFVKEIKR

Variants of: B1
Test: abundance fitness (aPCA) (normalised: wild type 0, dead -1); higher = more abundant; growth selection in yeast, the domain comes from the species named
Settings: Homo sapiens

Row | Variant | abundance fitness
1 | MVDYIVEYDYDAVHDDELTIRVGEIIRNVKKLQEEGWLEGELNGRRGMFPDNYVKEIKR | -0.131 ± 0.13
2 | MVDYIVEYDYDAVHDDELTIRVGEIIRNVKKLQEEGWLEGELNGRRGMFPDNDVKEIKR | -0.433 ± 0.14
3 | MVDYIVEYDYDAVHDDELTIRVGEIIRNVKKLQEEGWLEGELNGRRGMFPDNTVKEIKR | 0.205 ± 0.098
4 | MVDYIVEYDYDAVHDDELTIRVGEIIRNVKKLQEEGWLEGELNGRRGMFPDNPVKEIKR | -0.249 ± 0.11
5 | MVDYIVEYDYDAVHDDELTIRVGEIIRNVKKLQEEGWLEGELNGRRGMFPDNMVKEIKR | -0.047 ± 0.28
6 | MVDYIVEYDYDAVHDDELTIRVGEIIRNVKKLQEEGWLEGELNGRRGMFPDNCVKEIKR | 0.122 ± 0.083
7 | MVDYIVEYDYDAVHDDELTIRVGEIIRNVKKLQEEGWLEGELNGRRGMFPDNNVKEIKR | -0.053 ± 0.072
8 | MVDYIVEYDYDAVHDDELTIRVGEIIRNVKKLQEEGWLEGELNGRRGMFPDNSVKEIKR | 0.035 ± 0.071
9 | MVDYIVEYDYDAVHDDELTIRVGEIIRNVKKLQEEGWLEGELNGRRGMFPDNIVKEIKR | -0.119 ± 0.14
10 | MVDYIVEYDYDAVHDDELTIRVGEIIRNVKKLQEEGWLEGELNGRRGMFPDNEVKEIKR | -0.155 ± 0.21
11 | MVDYIVEYDYDAVHDDELTIRVGEIIRNVKKLQEEGWLEGELNGRRGMFPDNVVKEIKR | 0.023 ± 0.083
12 | MVDYIVEYDYDAVHDDELTIRVGEIIRNVKKLQEEGWLEGELNGRRGMFPDNHVKEIKR | 0.111 ± 0.11
13 | MVDYIVEYDYDAVHDDELTIRVGEIIRNVKKLQEEGWLEGELNGRRGMFPDNAVKEIKR | 0.052 ± 0.073
14 | MVDYIVEYDYDAVHDDELTIRVGEIIRNVKKLQEEGWLEGELNGRRGMFPDNQVKEIKR | -0.317 ± 0.12
15 | MVDYIVEYDYDAVHDDELTIRVGEIIRNVKKLQEEGWLEGELNGRRGMFPDNGVKEIKR | -0.145 ± 0.089
16 | MVDYIVEYDYDAVHDDELTIRVGEIIRNVKKLQEEGWLEGELNGRRGMFPDNLVKEIKR | 0.056 ± 0.086
17 | MVDYIVEYDYDAVHDDELTIRVGEIIRNVKKLQEEGWLEGELNGRRGMFPDNRVKEIKR | 0.001 ± 0.084
18 | MVDYIVEYDYDAVHDDELTIRVGEIIRNVKKLQEEGWLEGELNGRRGMFPDNWVKEIKR | -0.026 ± 0.35
19 | MVDYIVEYDYDAVHDDELTIRVGEIIRNVKKLQEEGWLEGELNGRRGMFADNFVKEIKR | -0.502 ± 0.16
20 | MVDYIVEYDYDAVHDDELTIRVGEIIRNVKKLQEEGWLEGELNGRRGMFGDNFVKEIKR | -0.322 ± 0.12
21 | MVDYIVEYDYDAVHDDELTIRVGEIIRNVKKLQEEGWLEGELNGRRGMFKDNFVKEIKR | -0.184 ± 0.28
22 | MVDYIVEYDYDAVHDDELTIRVGEIIRNVKKLQEEGWLEGELNGRRGMFSDNFVKEIKR | -0.329 ± 0.11
23 | MVDYIVEYDYDAVHDDELTIRVGEIIRNVKKLQEEGWLEGELNGRRGMFFDNFVKEIKR | -0.589 ± 0.16

Row | Variant | abundance fitness
24 | MVDYIVEYDYDAVHDDELTIRVGEIIRNVKKLQEEGWLEGELNGRRGMFHDNFVKEIKR | -0.149 ± 0.17
25 | MVDYIVEYDYDAVHDDELTIRVGEIIRNVKKLQEEGWLEGELNGRRGMFIDNFVKEIKR | -0.843 ± 0.29
26 | MVDYIVEYDYDAVHDDELTIRVGEIIRNVKKLQEEGWLEGELNGRRGMFEDNFVKEIKR | -0.968 ± 0.4
27 | MVDYIVEYDYDAVHDDELTIRVGEIIRNVKKLQEEGWLEGELNGRRGMFRDNFVKEIKR | 0.115 ± 0.15
28 | MVDYIVEYDYDAVHDDELTIRVGEIIRNVKKLQEEGWLEGELNGRRGMFNDNFVKEIKR | -0.261 ± 0.23
29 | MVDYIVEYDYDAVHDDELTIRVGEIIRNVKKLQEEGWLEGELNGRRGMFTDNFVKEIKR | -0.746 ± 0.24
30 | MVDYIVEYDYDAVHDDELTIRVGEIIRNVKKLQEEGWLEGELNGRRGMFVDNFVKEIKR | -0.996 ± 0.28
31 | MVDYIVEYDYDAVHDDELTIRVGEIIRNVKKLQEEGWLEGELNGRRGMFLDNFVKEIKR | -0.412 ± 0.11
32 | MVDYIVEYDYDAVHDDELTIRVGEIIRNVKKLQEEGWLEGELNGRRGMFPDEFVKEIKR | -0.263 ± 0.34
33 | MVDYIVEYDYDAVHDDELTIRVGEIIRNVKKLQEEGWLEGELNGRRGMFPDAFVKEIKR | -0.091 ± 0.22
34 | MVDYIVEYDYDAVHDDELTIRVGEIIRNVKKLQEEGWLEGELNGRRGMFPDPFVKEIKR | -0.065 ± 0.08
35 | MVDYIVEYDYDAVHDDELTIRVGEIIRNVKKLQEEGWLEGELNGRRGMFPDKFVKEIKR | 0.071 ± 0.096
36 | MVDYIVEYDYDAVHDDELTIRVGEIIRNVKKLQEEGWLEGELNGRRGMFPDIFVKEIKR | -0.141 ± 0.18
37 | MVDYIVEYDYDAVHDDELTIRVGEIIRNVKKLQEEGWLEGELNGRRGMFPDTFVKEIKR | -0.05 ± 0.11
38 | MVDYIVEYDYDAVHDDELTIRVGEIIRNVKKLQEEGWLEGELNGRRGMFPDSFVKEIKR | 0.107 ± 0.08
39 | MVDYIVEYDYDAVHDDELTIRVGEIIRNVKKLQEEGWLEGELNGRRGMFPDRFVKEIKR | 0.028 ± 0.094
40 | MVDYIVEYDYDAVHDDELTIRVGEIIRNVKKLQEEGWLEGELNGRRGMFPDQFVKEIKR | -0.127 ± 0.13
41 | MVDYIVEYDYDAVHDDELTIRVGEIIRNVKKLQEEGWLEGELNGRRGMFPDCFVKEIKR | -0.041 ± 0.17
42 | MVDYIVEYDYDAVHDDELTIRVGEIIRNVKKLQEEGWLEGELNGRRGMFPDYFVKEIKR | -0.203 ± 0.19
43 | MVDYIVEYDYDAVHDDELTIRVGEIIRNVKKLQEEGWLEGELNGRRGMFPDMFVKEIKR | -0.155 ± 0.11
44 | MVDYIVEYDYDAVHDDELTIRVGEIIRNVKKLQEEGWLEGELNGRRGMFPDFFVKEIKR | 0.073 ± 0.13
45 | MVDYIVEYDYDAVHDDELTIRVGEIIRNVKKLQEEGWLEGELNGRRGMFPDLFVKEIKR | -0.03 ± 0.078
